Measured values from publication PMC13342644, “Structural basis for transport and inhibition of nucleotide sugar transport in pathogenic fungi” (Nature Communications, 2026).
Entries after “also recorded” stand apart in the source; their conditions may differ.

T1: C. albicans Vrg4 (CaVrg4) (Candida albicans, UniProt Q5A477)
T1 sequence (Q5A477 34-371 limits assumed): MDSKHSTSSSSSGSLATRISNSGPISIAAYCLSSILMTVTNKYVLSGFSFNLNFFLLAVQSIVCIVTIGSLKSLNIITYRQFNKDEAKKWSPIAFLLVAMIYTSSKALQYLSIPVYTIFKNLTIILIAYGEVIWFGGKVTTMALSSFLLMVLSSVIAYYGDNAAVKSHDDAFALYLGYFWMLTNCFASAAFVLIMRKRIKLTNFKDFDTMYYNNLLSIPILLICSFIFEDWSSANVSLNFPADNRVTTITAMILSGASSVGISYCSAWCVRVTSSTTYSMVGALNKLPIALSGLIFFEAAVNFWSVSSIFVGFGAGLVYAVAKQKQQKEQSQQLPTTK


Assays:
[1] = target: T1, C. albicans Vrg4 (CaVrg4); assay: Liposome 3H-GMP transport assay in the presence of nanobodies; type: biochemical
Procedure: (§1) CaVrg4 was reconstituted into liposomes using the dilution method into preformed lipid vesicles. Chloroform was removed from the lipids using a rotary evaporator to obtain a thin film. The lipids were washed twice in pentane and then resuspended at 10–20 mg ml^−1 in lipid buffer (20 mM HEPES, pH 7.5, 100 mM KCl). These lipid vesicles were frozen and thawed twice in liquid nitrogen, then stored at −80 °C until use. For reconstitution, the lipids were thawed and then extruded first through a 0.8-μm filter and then through a 0.4-μm filter. […] After this time, the protein–lipid mix was diluted rapidly into 65 mL of assay buffer (20 mM HEPES, pH 7.5, 50 mM KCl, 2 mM MgSO4) and the proteoliposomes were collected through centrifugation at >200,000 x g for 2 h. To remove trace detergent, the proteoliposomes were dialysed overnight against a large volume (3 L) of assay buffer. After dialysis, the proteoliposomes were collected and resuspended in assay buffer to a final protein concentration of 0.5 μg μl^−1, and then subjected to two rounds of freeze–thawing in liquid nitrogen before storage at −80 °C. The amount of protein reconstituted into the lipids was quantified by SDS–PAGE and densitometry. […] The final buffer was PBS. For all the assays, the lipid mix consisted of POPE:POPG:Ecoli Polar lipid Extract:EggPC in a 27:7:9:1 ratio.
(§2) All assays were performed at 30 °C.

C. auris Vrg4 = assay: Liposome 3H-GMP transport assay in the presence of nanobodies (specificity control); type: biochemical; conditions: Vrg4 from Candida auris
Procedure: as §1, §2

S. cerevisiae Vrg4 = assay: as above; type: biochemical, Saccharomyces cerevisiae; conditions: Vrg4 from S. cerevisiae
[2] = tested on: yeast strain NDY5 overexpressing C. albicans Vrg4; assay: Hygromycin B-based in vivo viability (growth) assay; type: cell-based, Saccharomyces cerevisiae; conditions: NDY5 + C. albicans Vrg4, in the presence of hygromycin B
Procedure: The yeast was grown in minimal media to select for the plasmids, and the expression of the nanobody was induced with galactose. After overnight galactose induction, the yeast culture was diluted, and growth was monitored over 30 h.
An overnight culture was grown in minus -Leu-Ura medium containing 2% glucose and then diluted 1:10 into medium containing 2% lactate. After 9 h of growth, 2% galactose was added, and the cultures were left overnight. […] The cultures were grown at 30 °C with shaking, and growth was monitored over the next 30 h by measuring the OD.

Molecule | Effect on transport function (uptake of 3H GMP into liposomes), in words [1] | Detectable inhibition, in words (C. auris Vrg4) | Detectable inhibition, in words (S. cerevisiae Vrg4) | Growth / sensitivity to hygromycin B, in words [2]
NB3: inhibitory nanobody specific for C. albicans Vrg4, stabilises the Golgi-facing state (antibody, V domains shown) VH: QVQLVESGGGLVQPGGSLRLSCAASGSISEINVMGWYRQAPGKQRELVARITTGGSTNYADSVKGRFTISRDNAKNTVYLQMNSLKPEDTAVYMCNAHRRVVMEWGPLGYDYWGQGTQVTVSS | full inhibition | neither NB3 nor NB4 showed any detectable inhibition | neither NB3 nor NB4 showed any detectable inhibition | sensitivity of this strain to HyB manifests; also recorded: slow growth phenotype
NB4: inhibitory nanobody specific for C. albicans Vrg4, stabilises the cytoplasmic-facing state (antibody, V domains shown) VH: QVQLVESGGGLVQAGGSLRLSCAASGRTFRSYTLGWFRQAPGKEREFVAAIKWSTDTTYYADSVKGRFTISGDNAKNTVYLQMNSLKPEDTAVYFCAARSLSTVIAGPEIPWPYNSWGQGTQVTVSS | full inhibition | neither NB3 nor NB4 showed any detectable inhibition | neither NB3 nor NB4 showed any detectable inhibition | sensitivity of this strain to HyB manifests; also recorded: slow growth phenotype
